Measured values published in the nanobody polyreactivity screen of Harvey et al. (2022).

Assay: yeast display, Sf9 membrane polyspecificity reagent, FACS + sequencing; frameworks hold sequencing errors
Outline: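 Galactose induction of a Saccharomyces cerevisiae BJ5465 synthetic nanobody display library ran 36–48 hours. The cells were then stained for 1 hour at 4 °C with 10% biotinylated, detergent-solubilized Sf9 membrane reagent, pulled down on streptavidin microbeads and FACS-sorted into low and high (top ~1%) gates on expression and reagent-binding fluorescence. Labels for polyreactivity follow the gate of origin.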

| Sequence | polyreactivity (PSR sort gate) |
| --- | --- |
| QVQLVESGGGLVQAGGSLRLSCAASGFTIRRYAMGWYRQAPGKESELVAAITTGGSTYYADSVKGRFTISRDNAKNTVYLQMNSLKPEDTAVYYCATDTYPYPLYYSPGAYGYWGQGTQVTVSS | high polyreactivity |
| QVQLVESGGGLVQAGGSLRLSCAATGSIFARYAMGWYRQAPGKERELVAAIDQSAGSTYYADSVKGRFTISRDNAKNTVYLQMNSLKPEDTAVYYCNADFWYWWVNTYVGPGLGYWGQGTQVTVSS | high polyreactivity |
| QVQLVESGGGLVHAGGSLRLSCAASGSIFVWNAMGWYRQAPGKERELVARIRYSSNTYYADSVKGRFTISRDNAKNNVYLQMTSLKPEDTAVYYCAAGSTRYAGWTYNYWGQGTHVTVSS | high polyreactivity |
| QVQLVESGGGLVQAGGSLRLSCAASGRIFVKYAMGWYRQARGKESELVAAISKSGGSTYYADSVKGRFTISRDNAKTTVYLQINILKPEDTAVYYCAADEYYQVSAYDYWGQGTQVTVSS | low polyreactivity |
| QVQLVESGGGLVQAGGSLRLTCAASGRTFGLNTMGWYRQAPGKERELVAAISRRGGSTYYADSVKGRFTISRDNAKNTVYLQMNSLKPEDTAVYYCARTSYNRYDYWGQGTQVTVSS | high polyreactivity |
| QVQLVESGGGLVQAGGSLRLSCAASGSIFQSYAMGWYRQAPGKERELVAAISYSGDGTFYADSVKGRFTISRDNAKNTVYLQMNSLKPEDTAVYYCAASSTGYGGSTYYYWGQGTQVTVSS | low polyreactivity |
| QVQLVESGGGLVQAGGSLRLSCAASGRTFYWNAMGWSIQAPGKERELVASISWSGGRTYYADSVKGRFTISRDNAKNTVYLQMISLKPEDTAVYYCARRYSGTPSTFYYWGQGTLVTVSS | high polyreactivity |
| QVQLVESGGGLVQAGGSLRLSCAASGRTFSYYAKGWYRQAPGKESELVSAIRVSGGITYYADSVKGRFTISRDNAKNTVYLQMNTLKPEDTAVYYCNAGVDFIGGRYLTYVYWGQGTQVTVSW | low polyreactivity |
| QVQLVESGGGLVQAGGSLRLSCAASGFIFAIYAMGWYRQAPGKERELVAAITSSSSTYADSVKGRFTISRDNAKNTVYLQMNSLKPEDTAVYYCAADTYSYRNSNDYWGQGTQVTVSS | low polyreactivity |
| QVQLVESGGGLVQAGGSLRLSCAASGYIFADNDMGWYRQAPGKERELVASIDWSGGSTYYADSVKGRFTISRDNAKNTVYLQMNSLKPEDTAVYYCNKGAFGGVSSYIYWAFYSGYDYWGLGTQVTVSS | low polyreactivity |
| QVQLVESGGGLVQAGGSLRLSCAASGSIFYLYAMGWYRQAPGKERELVAAITSIGGSTYADSVKGRFTISRDNAKNTVYLQMYSLKPEDTAVYYCNTDEYPLTVQVQYYYWGQGTQVTVSS | low polyreactivity |
| QVQLVESGGGLVQAGGSLRLSCAASGLTFAFNAMGWYRPAPGKERELVAAISKSGGSTYYADSVKGRFTISRDNAKNTVYLQMNSLKPEDTAVYYCAAGFWYYSYPTLYEYGYWGQGTQVTVSS | low polyreactivity |
| QVQLVESGGGLVQAGGSLRLSCAASGYTYYRYAMGWYRQAPGKERELVAAISSSGGTYYADSVKGRFTISRDNAKNTVYLQMNSLKPEDTAVYYSAAEGYYLYNAGLWGYDYWGQGTQVTVSS | low polyreactivity |
| QVQLVESGGGIVQAGGSLRLSCAASGIIFRAYAMGWSRQAPGKDRELVAAISWSGGSTYYADSVKGRFTISRDNAKNTVYLQMNSLKPEDTAVYYCAARRWKGYYYWGQGTQVNVSS | high polyreactivity |
| QVQLVESGGGLVQAGGSLRLSCAASGITFVHYAMGWSRQAPGKERELVAAITVGDGGTYYADSVKGRFTISRDNAKNTVYLQMNSLKPEDTAVYYCAAGFYSYSWYVKLAYGYWGQGIQVTVSS | low polyreactivity |
| QVQLVESGGGLVQAGGSLRLSCAASGSIFTQYAMGWYREATGKERELVAAITSGGSTYADSVKGRFTISRDNANNTVYLQMNSLKPEDTAVYYCATQYSYRGVTFYYWGQGTQVTVSS | low polyreactivity |
| QVQLVESGGGLVQAGGSLRLSCAASGSTFAGNAMGWYRQAPGKERELVAAIDSSTGSTYYSDSVKGRFTISRDNAKNTVYLQMNSLKPEDTSVYYCNKTSVLVKLDYWGQGTQVTVSS | low polyreactivity |
| QVQLVESGGGLVQAGGSLRLSCAASGRTFERNTMRWYRQAPGKERELVAAISYDGGSTYYADSVKGRFTISRDNAKNTVYFQLNSLKPEDRAVYYCNAGGSEIYRSPFDYWGQGTQVTVSS | low polyreactivity |
| QVQLVESGGGLVQAGGSLRLSCAASGHIFYAYAMASYRQAPGKERELVASITYRGVSTYYADSVKARFTISRDNAKNTVYLQMHSLKPEDTAVYYCAAGRSRYLWFGRDFDYWGQGTQVTVSS | low polyreactivity |
| QVQLVESGGGLVQAGGSLRLSCAASGSIFARNAMGWYRQAPGKERELVASITWSGASTYYADSVKGRFTISRDNAKNTVYLQMNSLKPEDTAVYYCAATDQKLSLDYSSYEYWGQGTQVTVSS | low polyreactivity |
| QVQLVESGGGLVQAGGSLRLSCAASGRIFPPNAMGWSRQAPGKERELVAAITRGGSTYYADSVKGRFTISRDNAKNTVYLQMNSLKPEDTAVYYCATVPWYIKVGQKRNDYWGQGTQVTVSS | high polyreactivity |
| QVQLGESGGGLVQAGGSLRLSCAASGFTFYNYAMGWYRQAPGKERELVAAISTSGGSTYYADSVKGRFTISRDNAKNTVYLQMNSLKPEDTAVYYCAAQATAYSYAYYYWGQGTQVTVSS | low polyreactivity |

| Sequence | polyreactivity (PSR sort gate) |
| --- | --- |
| QVQLVESGGGLVQAGGSLRLSCAASGFIFGSYAMGWYRQAPGKERELVAAISTGGGSTYYADSVKGRFTISRDNAKNTVYLQMNSLKPEDTAVYYCATDYRVTVWHPYQWYIYGYWGQGTQVTVSS | low polyreactivity |
| QVQLVESGGGLVQAGGSLRLSCAASGRTFRPYAMGWYRQAPGKERELVAAISSRGSSTYYADSVKGRFTISRDNAKNTVYLQMNSLKPEDTAFYYCAAEGSVGLYGLIMHYWGQGTQVTVSS | high polyreactivity |
| QVQLVESGGGLVQAGGSLRLSCAASGRTFYYYAMGWYRQAHGKERELVAAISTNGGSTYYADSVKGRFTISRDNAKNTVYLQMNSLKPEDTAVYYCNTYAKPHRSGGGLGGHYYWGQGTQVTLSS | low polyreactivity |
| QVQLVESGGGLVQAGGSLRLSCAASGSIFRVYAMGWYRPAPGKERELVASISRRGGSTYYADSVKGRFTISRDNEKNTVYLHMNILKPEDTAVYYCAAEFVIGVHCYDYWGQVTQVTVSS | high polyreactivity |
| QVQLVESGGGLVQAGGSLRLICAASGRTFYRYAMGWYRQAPGKDRELVATISRSGGSTYYADSVKGRFTISRDNAKNTVYLQINSLKPEDTAVYYCAADIPSYYWWRAYDYWGQGTQVTVSS | low polyreactivity |
| QVQLVESGGGLVQAGGSLRLSCAASGSTFRQYAMGWYRQAPGKERELVAAISSSGSTTYYADSVKGRFTISRDNAKNTVDVQMNSRKPEDTAVYYCAATYGFYYFPYDYWGQGTQVTVSS | low polyreactivity |
| QVQLVESGGGLVQAGGSLRLSCAASGFTFYIYAMGWYGLAAGKERELVAAINFRGGSTYYADSVKGRFTISRDNAKNTVYLQMNSLKPEDTAVKYCAARSRDKYDYWGQGTQVTVSS | high polyreactivity |
| QVQLVESGGGLVQAGGSLRLSCAASGNIFTFNAMGWYRQAPGKERELVAAIRSGGSTNYADSVKGRFTISRDNAKNTVYLQMNSLIPEDTAVYYCAAKRYVQGYVYRFGYWGQGTQVTVSS | high polyreactivity |
| QVQLVESGGGLVQAGGSLRLSCAASGSIFVGNAMGWYRQAPGKERELVAAISSSGGSTYYADSVKGRFTISRDNAKNTVYLQMNSLKPEDTAVYYCAADTYSTSVYYYWGQGTQVTVSS | low polyreactivity |
| QLQLVESGGGLVQAGGSLRLSCAASGSIFASNAMGWYRQAPGKERELVAAISSGGSRTYYADSVKGRFTISRDNAKNSVYLQMNSLKPEDTAVYYCNTVWFYGAKYDYWGQGTQVTVSS | high polyreactivity |
| QVQLQESGGGLVQAGGSLRLSCAASGTIFRISDMGSYRQAPGKEREFVAAITYGANTYYADSGKGRFTISRDNAKNTVSLQMNSLKPEDTAVYYCAVPPVKETILDYWGQGTQVTVSS | low polyreactivity |
| QVQLVETGGGLVQAGGSLRISCAPSGSIFQRYAMGWYTQAPGKERELVAAITGSGGSTYYADSVMWRFTISRDNAKKTVYLQMNILKPEDSAVYYCAKRYPSRQYTLYNYWGLGTQVTVSS | high polyreactivity |
| QVQLVESGGGLVQAGGSLRLSCAASGLIFSRYAMGWYRQAPGKERELVAAITWRGGSTYYADSVKGRFTISRDNAKNTVYLQMNSLKPEDTAVYYCNADGLWFQGYNSWGQGTQVTVSS | low polyreactivity |
| QVQRVESGGGLVQAGGSLRLSFAAAGGILYPYAMGWYRQAPGKERELVAAITSSGSTYYADSVKGRFTISRDNAKITVYLQMNSLNPEDHAVYYCAITLPTRNKLRSGREYDYWGQGTQVTVSS | low polyreactivity |
| QVQLVESGGGLVQAGGSLRLSCAASGSIFSRYTMGWYRQAPGKERELVAAISSGGSTNYADSVKGRFTISRDNAKNTVYLQMNRLKPEDTAVYYCAARSYRYYYGFDYWGQGTQVTVSS | low polyreactivity |
| QVQLVESGGGLVQAGGSLRLSCAASGFTLDDYAMGWYRQAPGKEREWVAAITSGGTYADSVKGRFTISRDNAKNTVYLQMNSLKPEDTAVYYCNAGNNVVVDYDYWGQGTQVTVSS | low polyreactivity |
| QVQLVESGGGLVQAGGSLRLSCAASGSIFDRYAMGWYRQAPGKERELVAAISTGGSTNYADSVKGRFTISRDNAKNTVYLQMNSLKPEDTAVYYCAARYLYRMYYWGQGTQVTVSS | low polyreactivity |
| QVQLVESGGGLVQAGGSLRLSCAASGFTFASNDMGWYIPAPGKERELVSAITKGGGRTYYADSVKGRFTISRDNAKNTVYLQMNSLKPEDTAVYYCAASHDKRRQYFVGQSAFDYWGQGTQVTVSS | low polyreactivity |
| QVQLVESGVGLVESGGSLRLSCASSGSTFVYTAMCWYRQSPGKERELVAAISWSGGSTYYADSVKGRFTISRDNAKKTVYLQMNSQKPEDTAVYYCAADGNPPAAMDYRGQGTQVTVSS | low polyreactivity |
| QVQLVESGGGLVQAGGSLRLSCAASGFTFTPYGMGWYRQAPGKERALVAAITWNGGRTYYADSVKGRFTISRDNAKNTVYLQMNSLKPEDTAVDYCAAVAWSWQKRGYWGQGTQVTVSS | high polyreactivity |
| QVQLVESGGGLDQAGGSLRLICAASGRTFYYAMGWYRQAPGKERYADSVKGRFTISRDNAKNTVYLQMNSLKPEDTAVYYCAAKVPEPPSLDESDYWGQGTQVTVSS | low polyreactivity |
